Where no end group is shown, it is not given here.
Molecular target: T1, calcitonin receptor (human, UniProt P30988 25-474)
T1 sequence (looked up): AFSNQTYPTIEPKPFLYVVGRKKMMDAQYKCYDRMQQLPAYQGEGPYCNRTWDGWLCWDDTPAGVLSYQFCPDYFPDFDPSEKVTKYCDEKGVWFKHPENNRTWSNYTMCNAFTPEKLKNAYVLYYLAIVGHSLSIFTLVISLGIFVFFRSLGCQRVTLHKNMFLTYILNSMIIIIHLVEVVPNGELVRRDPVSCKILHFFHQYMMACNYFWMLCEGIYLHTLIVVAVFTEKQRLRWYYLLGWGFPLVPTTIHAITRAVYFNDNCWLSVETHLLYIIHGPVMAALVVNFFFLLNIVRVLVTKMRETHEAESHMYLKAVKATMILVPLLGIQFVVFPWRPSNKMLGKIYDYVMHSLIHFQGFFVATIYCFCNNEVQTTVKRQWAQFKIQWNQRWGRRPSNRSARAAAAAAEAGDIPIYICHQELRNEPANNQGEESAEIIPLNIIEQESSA
Test: cell-based or functional assay

Row | Binder | intracellular cAMP in T47D cells, % of native sCT activity, at 50 nM [%] | intracellular cAMP in T47D cells, % of native sCT activity, at 100 nM [%] | intracellular cAMP in T47D cells, % of native sCT activity, at 10 mM (so in the source) [%]
1 | CSNLSTCVLGKLSQELHKLQTYPRTNTGSGTP (ends and bridges not checked; also: mixture of mono-, di- and tri-substituted: SMCC group in amide bond on Lys11, Lys18 and/or N-terminus) [sCT-SMCC] | 98 | 115 | 94.3
2 | CSNLSTCVLGKLSQELHKLQTYPRTNTGSGTP (ends and bridges not checked; also: mixture: SMCC linker carrying thiol bisphosphonate on Lys11, Lys18 and/or N-terminus (2-3 SMCC, 1-3 BP)) [sCT-BP] | 102 | 99.8 | 92.8

— patent US20120270787A1 (GOVERNORS OF THE UNIVERSITY OF ALBERTA, published 2012)
